Starred links: 1 amine or outer side, 2 acyl side, 3 side chain; linkers in the order of their positions; H or OH if unused. Positions of bridges follow the written chain, without caps; N, C: chain ends. Non-standard residues stand in square brackets, D forms with d. Primed or numbered codes have the meaning given here. *: point of attachment. cholesteryl‑oxycarbonylmethyl = CC(C)CCC[C@@H](C)[C@H]1CC[C@H]2[C@@H]3CC=C4C[C@@H](OC(=O)C*)CC[C@]4(C)[C@H]3CC[C@]12C; B21″ = 2,7-dimethylnaphtyl linker joining two Cys, c1cc2ccc(C[*:2])cc2cc1C[*:1]; tBuAla = CC(C)(C)C[C@H](N)C(=O)O; Suc = O=C(CCC(=O)[*:2])[*:1]; hCys = N[C@@H](CCS)C(=O)O; Nva = CCC[C@H](N)C(=O)O; Abu = CC[C@H](N)C(=O)O; Hexanoyl = CCCCCC(=O)*; Pentanoyl = CCCCC(=O)*; B1 = not defined here; B3 = not defined here; Butyryl = CCCC(=O)*
B1: peptide 32 (peptide)
peptide: Suc-ENYLRLIEELIRKAQEQQEKNEAALRGSGC(cholesteryl‑oxycarbonylmethyl)-NH2
SMILES: CC[C@H](C)[C@H](NC(=O)[C@H](CC(C)C)NC(=O)[C@H](CCC(=O)O)NC(=O)[C@H](CCC(=O)O)NC(=O)[C@@H](NC(=O)[C@H](CC(C)C)NC(=O)[C@H](CCCNC(=N)N)NC(=O)[C@H](CC(C)C)NC(=O)[C@H](Cc1ccc(O)cc1)NC(=O)[C@H](CC(N)=O)NC(=O)[C@H](CCC(=O)O)NC(=O)CCC(=O)O)[C@@H](C)CC)C(=O)N[C@@H](CCCNC(=N)N)C(=O)N[C@@H](CCCCN)C(=O)N[C@@H](C)C(=O)N[C@@H](CCC(N)=O)C(=O)N[C@@H](CCC(=O)O)C(=O)N[C@@H](CCC(N)=O)C(=O)N[C@@H](CCC(N)=O)C(=O)N[C@@H](CCC(=O)O)C(=O)N[C@@H](CCCCN)C(=O)N[C@@H](CC(N)=O)C(=O)N[C@@H](CCC(=O)O)C(=O)N[C@@H](C)C(=O)N[C@@H](C)C(=O)N[C@@H](CC(C)C)C(=O)N[C@@H](CCCNC(=N)N)C(=O)NCC(=O)N[C@@H](CO)C(=O)NCC(=O)N[C@@H](CSCC(=O)O[C@H]1CC[C@@]2(C)C(=CC[C@H]3[C@@H]4CC[C@H]([C@H](C)CCCC(C)C)[C@@]4(C)CC[C@@H]32)C1)C(N)=O
B2: peptide 39 (peptide)
peptide: Pentanoyl-ECYLACIEALIRAAQEQQEKNEAALR-NH2
modifications: linker 2-6 via B21″
SMILES: CCCCC(=O)N[C@@H](CCC(=O)O)C(=O)N[C@H]1CSCc2ccc3ccc(cc3c2)CSC[C@@H](C(=O)N[C@H](C(=O)N[C@@H](CCC(=O)O)C(=O)N[C@@H](C)C(=O)N[C@@H](CC(C)C)C(=O)N[C@H](C(=O)N[C@@H](CCCNC(=N)N)C(=O)N[C@@H](C)C(=O)N[C@@H](C)C(=O)N[C@@H](CCC(N)=O)C(=O)N[C@@H](CCC(=O)O)C(=O)N[C@@H](CCC(N)=O)C(=O)N[C@@H](CCC(N)=O)C(=O)N[C@@H](CCC(=O)O)C(=O)N[C@@H](CCCCN)C(=O)N[C@@H](CC(N)=O)C(=O)N[C@@H](CCC(=O)O)C(=O)N[C@@H](C)C(=O)N[C@@H](C)C(=O)N[C@@H](CC(C)C)C(=O)N[C@@H](CCCNC(=N)N)C(N)=O)[C@@H](C)CC)[C@@H](C)CC)NC(=O)[C@H](C)NC(=O)[C@H](CC(C)C)NC(=O)[C@H](Cc2ccc(O)cc2)NC1=O
B3: peptide 35 (peptide)
peptide: Suc-ANYLALIEALIRAAQEQQEKNEAALRGSGC(cholesteryl‑oxycarbonylmethyl)-NH2
SMILES: CC[C@H](C)[C@H](NC(=O)[C@H](CC(C)C)NC(=O)[C@H](C)NC(=O)[C@H](CCC(=O)O)NC(=O)[C@@H](NC(=O)[C@H](CC(C)C)NC(=O)[C@H](C)NC(=O)[C@H](CC(C)C)NC(=O)[C@H](Cc1ccc(O)cc1)NC(=O)[C@H](CC(N)=O)NC(=O)[C@H](C)NC(=O)CCC(=O)O)[C@@H](C)CC)C(=O)N[C@@H](CCCNC(=N)N)C(=O)N[C@@H](C)C(=O)N[C@@H](C)C(=O)N[C@@H](CCC(N)=O)C(=O)N[C@@H](CCC(=O)O)C(=O)N[C@@H](CCC(N)=O)C(=O)N[C@@H](CCC(N)=O)C(=O)N[C@@H](CCC(=O)O)C(=O)N[C@@H](CCCCN)C(=O)N[C@@H](CC(N)=O)C(=O)N[C@@H](CCC(=O)O)C(=O)N[C@@H](C)C(=O)N[C@@H](C)C(=O)N[C@@H](CC(C)C)C(=O)N[C@@H](CCCNC(=N)N)C(=O)NCC(=O)N[C@@H](CO)C(=O)NCC(=O)N[C@@H](CSCC(=O)O[C@H]1CC[C@@]2(C)C(=CC[C@H]3[C@@H]4CC[C@H]([C@H](C)CCCC(C)C)[C@@]4(C)CC[C@@H]32)C1)C(N)=O

system: HIV wild type virus strain IIIB; test: Standard Anti-Viral-Experiment (AVE), HIV-1 replication assay in MT4-LTR-EGFP cells, wild type IIIB; format: cell-based; conditions: 3 days, EGFP signal
Source text: • Standard Anti-Viral-Experiment “AVE” (wild type HIV strain IIIB+HIV strain HXB2D side directed mutants V38A and Q40H)
The HIV-1 replication assay measures virus replication (HIV wild type virus strain 111B or HXB2D, or a HIV mutant virus strain HXB2D with mutation V38A or Q40H in the gp41 gene) as an induction of enhanced green fluorescent protein (EGFP) expression. The indicator MT4-LTR-EGFP cells contain an EGFP gene under the control of the HIV-1 LTR promoter sequence. Successful HIV-1 infection results in viral Tat protein expression and subsequent induction of EGFP expression. Compounds/peptides inhibiting HIV-1 infection are expected to reduce EGFP expression as compared to the untreated HIV-infected control.
Serial 4-fold dilutions of test compounds/peptides were mixed with HIV-1 (IIIB, HXB2D, or a HXB2D mutant virus (V38A or Q40H)) and MT4-LTR-EGFP cells and incubated at 37° C. After 3 days, the wells were examined for EGFP expression using an argon laser-scanning microscope. The effective compound/peptide concentration inhibiting 50% of the virus-induced EGFP signal (EC50) was determined by linear interpolation of the EGFP signal vs. logarithm of the compound concentration; (T20, C34 and Sifuvirtide were added as reference compounds). For the V38A and Q40H mutant viruses, results were reported as a fold change in EC50, as compared with a drug-susceptible wild type strain HXB2D, which forms the backbone of the mutant virus. • Standard AVE (50% Human Serum)

With “NNYTSLIHSLIEESQNQQEKNEQELL [C34-PBD*, reference compound]” the EC50 was > 49.2 µM.

target: gp41 of HIV-1 strain HXB2D with mutation V38A (HIV-1 strain HXB2D, UniProt P04578); test: cell-based or functional assay; conditions: not given

Point of comparison: Suc-ECYLRCIEELIRKAQEQQEKNEAALR-NH2 (linker 2-6 via B1; reading uncertain) [peptide 29], “fold change in EC50, HIV-HXB2D V38A mutant” value 7 fold. Against it:
- Pentanoyl-ECYLACIEALIRAAQEQQEKNEAALR-NH2 (linker 2-6 via B1; reading uncertain) [peptide 38] — lower, 3 fold
- Suc-ACYLACIEELIRKAQEQQEKNEAALR-NH2 (linker 2-6 via B1; not fully specified; reading uncertain) [peptide 31] — higher, 14 fold
- Ac-ECYLACIEELIRKAQEQQEKNEAALR-NH2 (linker 2-6 via B1; reading uncertain) [peptide 37] — the same, 7 fold
- Ac-ENYTRQIYRILEESQEQQDRNERDLL-NH2 [Sifuvirtide-PBD] — not separable, > 3 fold
- Suc-CYLACIEELIRKAQEQQEKNEAAL[tBuAla]-NH2 (linker 1-5 via B1; reading uncertain) [peptide 24] — higher, 26 fold
- Suc-CYLACIEELIRKAQEQQEKNEAAL[tBuAla]-NH2 (linker 1-5 via B3; reading uncertain) [peptide 27] — higher, 28 fold
- B1 — lower, 1 fold
- Ac-ACYLACIEALIRKAQEQQEKNEAALR-NH2 (linker 2-6 via B1; reading uncertain) [peptide 48] — higher, 10 fold
- Hexanoyl-ECYLACIEELIRKAQEQQEKNEAALR-NH2 (linker 2-6 via B1; reading uncertain) [peptide 42] — lower, 2 fold
- Ac-SWETWEREIENYTRQIYRILEESQEQQDRNERDLLE-NH2 [Sifuvirtide] — lower, 1 fold
- Suc-CYLACIEALIRAAQEQQEKNEAALR-NH2 (linker 1-5 via B1; reading uncertain) [peptide 26] — higher, 19 fold
- Ac-ECYLACIEALIRAAQEQQEKNEAALR-NH2 (linker 2-6 via B1; reading uncertain) [peptide 45] — higher, 14 fold
- Suc-[hCys]YLA[hCys]IEALIRAAREQQEKNEALLR-NH2 (linker 1-5 via B1; reading uncertain) [peptide 28] — lower, 4 fold
- Pentanoyl-ECYLACIEELIRKAQEQQEKNEAALR-NH2 (linker 2-6 via B1; reading uncertain) [peptide 41] — lower, 2 fold
- Suc-ACYLACIDELIAKAQEQQEKNEAALR-NH2 (linker 2-6 via B1; reading uncertain) [peptide 36] — higher, 23 fold
- Suc-ACY[Nva]ACIEALIRAAQEQQEKNEAALR-NH2 (linker 2-6 via B1; reading uncertain) [peptide 44] — higher, 15 fold
- Suc-ACYLACIDELIKKAQEQQEKNEAALR-NH2 (linker 2-6 via B1; reading uncertain) [peptide 30] — higher, 8 fold
- Suc-ACYLACIEALIRA[Nva]QEQQEKNEAALR-NH2 (linker 2-6 via B1; reading uncertain) [peptide 46] — lower, 6 fold
- B2 — lower, 2 fold
- B3 — lower, 4 fold
- Suc-ACYLACIEELIRKAQEQQEKNEAAL[dR]-NH2 (linker 2-6 via B1; reading uncertain) [peptide 34] — higher, 19 fold
- Suc-ECYLACIEALIRAAQEQQEKNEAALR-NH2 (linker 2-6 via B1; reading uncertain) [peptide 33] — higher, 11 fold
- Butyryl-ECYLACIEELIRKAQEQQEKNEAALR-NH2 (linker 2-6 via B1; reading uncertain) [peptide 40] — lower, 3 fold
- Suc-ACYLACIEALIRAAQEQQEKNEAALR-NH2 (linker 2-6 via B1; reading uncertain) [peptide 43] — higher, 19 fold
- Suc-ACYLACIEALIRA[Abu]QEQQEKNEAALR-NH2 (linker 2-6 via B1; reading uncertain) [peptide 47] — higher, 17 fold
